The results in this text go back to the nanobody polyreactivity screen of Harvey et al. (2022).

The nature of the data set: yeast display, Sf9 membrane polyspecificity reagent, FACS + sequencing; frameworks hold sequencing errors. The gist of the method:
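Nanobodies came from a synthetic yeast display library in Saccharomyces cerevisiae BJ5465, induced with galactose for 36–48 hours and stained for 1 hour at 4 °C with 10% biotinylated, detergent-solubilized Sf9 membrane reagent. Cells were enriched on streptavidin microbeads and then FACS-sorted, with low and high (top ~1%) gates set on anti-HA fluorescence for expression and streptavidin fluorescence for reagent binding. Each polyreactivity label reflects the gate a clone came from. Genes were amplified by colony PCR, sequenced by MiSeq 2 × 250 and filtered by CDR length.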
For the sequence “QVQLVESGGGLVQAGGSLRLSCAASGRIFGFYAMGLYRQAPGKERELVARITLSGGRTYYADSVKGRFTISRDNAKNTVYLQMNSLKPEDTAVYYCAADSIGRLWGYGYWGQGTQVTVSS”, the “polyreactivity (PSR sort gate)” value was “high polyreactivity”.
As for “QVQLVESGGGLVQAGGSLRLSCAASGRIFGFYAMGWYRQAPGKEREFVAAITWSGTNTYYADSVKGRFTISRDNAKNTVYLQMNSLKPEDTAVYYCNARQYYKYGYWGQGTQVTVSS”, the entry is “high polyreactivity”.
Next, “QVQLVESGGGLVQAGGSLRLSCAASGRIFGFYAMGWYRQAPGKERELVADINWSATSTYYADSVKGRFTISRDNAKNTVYLQMNSLKPEDTAVYYCAADVSYRYYWGQVTQVTVSS”: “low polyreactivity”; “QVQLVESGGGLVQAGGSLRLSCAASGRIFGFYAMGWYRQAPGKERELVADITSGGSTNYADSVKGRFTISRDNAKNTVYLQMNSLKPEDTAVYYCNALSYVWYRYPGNWDEDDYWGQGTQVTVSS”: “low polyreactivity”.
As for “QVQLVESGGGLVQAGGSLRLSCAASGRIFGFYAMGWYRQAPGKERELVARITSGGRTTYADSVKGRFTISRDNAKNTVYLQMNSLKPEDTAVYYCAADARYHGFPKVYYYRGGYDYWGQGTQVTVSS”, the entry is “high polyreactivity”.
With “QVQLVESGGGLVQAGGSLRLSCAASGRIFGGNAMGWYRQAPGKERELVAAISKRGGSTYYADSVKWRFTISRDNAKNTVYLQMNILKPEDTAVYYCAATAYADQGLDYGYWGQGTQVTVSS”, the “polyreactivity (PSR sort gate)” value is “high polyreactivity”.
As for “QVQLVESGGGLVQAGGSLRLSCAASGRIFGGNAMGWYRQAPGKERELVAAITSGGTTNYADSVKGRFTISRDNAKNTVYLQMNSLKPEDTAVYYCAADFKPLYYDEYDYWGQGTQVTVSS”, the entry is “low polyreactivity”.
“QVQLVESGGGLVQAGGSLRLSCAASGRIFGGNAMGWYRQAPGKERELVAAITTRGGSTYADSVKGRFTISRDKAKNTVYLQMNSLKPEDTAVYYCAVERSYHGGPRYLVRTYGYWGQGTQVTVSS”: the “polyreactivity (PSR sort gate)” value was “low polyreactivity”.
Take “QVQLVESGGGLVQAGGSLRLSCAASGRIFGGNTMGWYRQAPGKEREFVAAITQSGTRTYYADSVKGRFTISRDNAKNTVYLQMNSLKPEDTAVYYCAATWRQHPGSMGYWGQGTQVTVSS”: the “polyreactivity (PSR sort gate)” value is recorded as “high polyreactivity”.
Next, “QVQLVESGGGLVQAGGSLRLSCAASGRIFGGYAMGWYRPAPGKERELVAAISSRGGSTYYADSVKGRFTISRDNAKNTVYLQMNSLKPEDTAVYYCAADGRVKGWGQGTQVTVSS”: “high polyreactivity”; “QVQLVESGGGLVQAGGSLRLSCAASGRIFGGYAMGWYRQAPGKERELVAAISSGGNTKYADSVKGRFTISRDNAKNTVYLQMNSLKPEDTAVYYCAAKFAQPYYRYDYWGQGTQVTVSS”: “high polyreactivity”; “QVQLVESGGGLVQAGGSLRLSCAASGRIFGGYAMGWYRQAPGKERELVASITARGTSTYYADTVKGRFTISRDNAKNTVYLQMNRLKPEDTAVYYCNALYRIYRNQWFISNYGYYYWGQGTQVTVSS”: “low polyreactivity”.
As to “QVQLVESGGGLVQAGGSLRLSCAASGRIFGGYAMGWYRQAPGKERELVAVINGGTSTKYADSVKGRFTISRDNAKNTVYLQMNSLKPEDNAVYYCAKTRHDSLQNRNRYDYWGQGTQVTVSS”, the “polyreactivity (PSR sort gate)” value is reported as “low polyreactivity”.
As for “QVQLVESGGGLVQAGGSLRLSCAASGRIFGGYAMGWYRQAPGKERELVAVITDGGSTNYADSVKGRFTISRDNAKNTVYLQMNSLKPEDTAVYYCAADSYGDEPPYDYWGQGTQVTVSS”, the entry is “low polyreactivity”; as for “QVQLVESGGGLVQAGGSLRLSCAASGRIFGGYTMGWYRQAPGKERELVAAITSGGSTNYADSVKGRFTISRDNAKNTVYLQMNSLKPEDTAVYYCAATYDGTYDYWGQGTQVTVSS”, “high polyreactivity”.
As for “QVQLVESGGGLVQAGGSLRLSCAASGRIFGINVMGWYRPAPGKERELVARITGRGGRTYYADSVKGRFTMSRDNAKNTVYLQMNSLKPEDTAVYYCAADARYEAYDYWGQGTQVTVSS”, the entry is “high polyreactivity”.
